Test results as given in US20110086089A1, “USE OF P27KIP1 FOR THE PREVENTION AND TREATMENT OF HEART FAILURE” (UNIVERSITY HEALTH NETWORK, priority 2008, published 2011).
Marks after values point to notes of the source that are not given here.

B1: CK2-α′: recombinant active TAT-conjugated CK2-alpha-prime protein with NES of HIV-1 Rev (protein)
chain: MPGPAAGSRARVYAEVNSLRSREYWDYEAHVPSWGNQDDYQLVRKLGRGKYSEVFEAINITNNERVVVKILKPVKKKKIKREVKILENLRGGTNIIKLIDTVKDPVSKTPALVFEYINNTDFKQLYQILTDFDIRFYMYELLKALDYCHSKGIMHRDVKPHNVMIDHQQKKLRLIDWGLAEFYHPAQEYNVRVASRYFKGPELLVDYQMYDYSLDMWSLGCMLASMIFRREPFFHGQDNYDQLVRIAKVLGTEELYGYLKKYHIDLDPHFNDILGQHSRKRWENFIHSENRHLVSPEALDLLDKLLRYDHQQRLTAKEAMEHPYFYPVVKEQSQPCADNAVLSSGLTAAR
modifications: left off: small tags and cut ends
B2: p27ΔC: TAT-conjugated p27 deficient in binding to CK2-alpha-prime (p27.1-86), serving as negative control (protein)
chain: MSNVRVSNGSPSLERMDARQADHPKPSACRNLFGPVDHEELTRDLEKHCRDMEEASQRKWNFDFQNHKPLEGKYEWQEVEKGSLPE
modifications: left off: small tags and cut ends

Key:
[1] = system: p27 phosphorylation at S83 and T187 in cardiomyocytes; experiment: p27 phosphorylation at S83 and T187 in Ang II-treated cardiomyocytes (Western blot); assay type: cell-based, rat; conditions: Ang II 4 h; lentiviruses 72 h; DMAT 20 μM pre-incubated 30 min; TAT-conjugated CK2-alpha-prime 2.5 μg/ml 1 h
Procedure: FIG. 2 is a series of graphs and blots showing Ang II triggers CK2-alpha-prime-dependent phosphorylation of p27 on S83 and T187 in cardiomyocytes. (A) p27 is a substrate of CK2-alpha-prime. […] In vitro kinase assays employing recombinant wt.p27 (1 μg) or phosphorylation site mutants of p27 as substrates were incubated with recombinant CK2-alpha-prime/beta (200 ng). Aliquots of the reaction mixtures were resolved on SDS-PAGE, electrotransferred to nitrocellulose membranes, and the amount of incorporated radioactive [^32P}-label into p27 was quantified with a PhosphorImager and ImageJ software. Individual membranes were probed with anti-CK2-alpha-prime, anti-p27 (input), or phosphorylation site specific antibodies to p27. […] Samples were resolved on SDS-PAGE, transferred to nitrocellulose-membranes, and the amount of incorporated radioactive label into histones was quantified with a PhosphorImager and ImageJ. The input amount of each CK2-alpha-prime and p27 protein used in the kinase reaction mixtures was monitored by immunoblot analysis employing anti-His. […] Biochemically fractionated extracts corresponding to 4×10^5 cells per lane were analyzed by immunoblotting employing antibodies as indicated on the left. […]

WT mice = experiment: Chronic Ang II infusion for 14 days with daily TAT.protein injection, WT mice; assay type: in vivo; conditions: for FS / LVEDD / LVEF / LVESD / PWD: WT, echocardiography at 14 days
Excerpt: FIG. 5 is a series of graphs, blots and cell stainings showing CK2-alpha-prime is important for Ang II action in vivo. […] Transduction of recombinant active CK2-alpha-prime evokes cardiac hypertrophy in the absence of Ang II. (A) Heart-weight corrected for body-weight (left panel) and Masson-stain of myocardial cross sections (right panel). Mean±s.e.m., n=6-8. #P<0.01 vs sham saline. *P<0.01 vs sham saline. Scale bar, 2 mm. (B) Cell size analysis of adult cardiac myocytes isolated from 8-weeks-old mice. One hundred cells from three different mice were analyzed per group. Mean±s.e.m. #P<0.01 vs sham saline. *P<0.01 vs sham saline. **P<0.01 vs Ang II. (c) Determination of ANF/BNP mRNA levels by qRT-PCR. Mean±s.e.m., n=6-8. *P<0.05 vs sham saline. **P<0.05 vs Ang II. #P<0.05 vs sham saline. (D) Visualization of ectopic TAT-conjugated p27deltaPi by indirect immunofluorescence microscopy employing anti-His tag antibodies. Scale bar, 200 μm. (E) Left ventricular extracts (2-3 mg) were subjected to anti-CK2-alpha-prime immunocomplex kinase assays employing histone H1 substrate. Aliquots of kinase reactions were subjected to immunoblotting using antibodies as indicated on the left (top and middle panel). Levels of endogenously expressed or transduced proteins in total left ventricular heart tissue samples (60 μg) were analyzed by immunoblotting (bottom panel). Experiments to (E) were done twice with similar results.
To define whether CK2-alpha-prime -directed p27 turnover plays a role in vivo, the inventors chronically infused Ang II^72 and intraperitoneally injected recombinant TAT-conjugated CK2-alpha-prime and p27 variants in WT and p27^−/− mice (FIG. 9). […] These mice had normal LVEDD and LVESD when compared to Ang II-infused littermates (Table 3). […] CK2-alpha-prime activity and p27 destabilization were similar to their non-transduced Ang II-treated siblings (FIG. 5E).
(§1) Spontaneously beating cardiomyocytes from heart ventricles of neonatal rats were cultured and subjected to treatment with angiotensin II (Ang II). DMAT (2-dimethylamino-4,5,6,7-tetrabromo-1H-benzimidazol), DMSO, lactacystin and LLM were obtained from Calbiochem. Ang II was purchased from Sigma. Animal usage was in accordance with approved institutional animal care guidelines. Age-matched male WI C57BL/6 and p27^−/− mice were used in this study. For results shown in FIGS. 1 to 9: Ang II was chronically infused subcutaneously by osmotic pumps (model 2000, Alzet) at a dose of 1.4 μg/kg per minute for 14 days. TAT.proteins (10 mg/kg) were injected intraperitoneally once daily for 14 days. For results shown in FIGS. 10 to 12: Ang II was chronically infused subcutaneously by osmotic pumps (model 2000, Alzet) at a dose of 0.7 μg/kg per minute for 16 days. TAT.proteins (20 mg/kg) were injected intraperitoneally once daily for 8 days starting at day 8. Thoracic aortic banding (TAB) and pressure gradient measurements were performed as described^39.

p27 KO mice = experiment: Chronic Ang II infusion for 14 days with daily TAT.protein injection, p27 KO mice; assay type: in vivo; conditions: p27 KO, echocardiography at 14 days
Procedure: (A) Heart-weight corrected for body-weight (left panel) and Masson-stain of myocardial cross sections (right panel). Mean±s.e.m., n=6-8. *P<0.01 vs sham saline. **P<0.01 vs Ang II. Scale bar, 2 mm. (B) Cell size analysis of adult cardiac myocytes isolated from 8-weeks-old mice. One hundred cells from three different mice were analyzed per group. Mean±s.e.m. *P<0.01 vs sham saline. **P<0.01 vs Ang II. (C) Determination of ANF/BNP mRNA levels by qRT-PCR. Mean±s.e.m., n=6-8. *P<0.01 vs sham saline. **P<0.01 vs Ang II. (D) CK2-alpha-prime-dependent kinase activity determined in whole left ventricular tissue samples. One typical result of two independent experiments is shown. (E, F) Ang II action induces apoptosis in p27^−/− mice. (E) Quantification of apoptotic cardiac myocytes (white arrowheads) by in situ TUNEL and GATA4 immunofluorescence histochemistry of left ventricular specimen. Mean±s.e.m., n=4. *P<0.01 vs sham saline. **P<0.05 vs sham saline. #P<0.01. (F) Determination of caspase 3 activity in total left ventricular heart tissue samples. Mean±s.e.m., n=4. *P<0.05 vs sham saline. #P<0.01. (G) Model for CK2-alpha-prime-dependent regulation of cardiac hypertrophy through phosphorylation of p27. Hypertrophic signals stimulate CK2-alpha-prime kinase that phosphorylates p27 at S83 and T187. Phosphorylation of p27 impairs its ability to bind to and inhibit […] activity. Subsequently, p27 is proteasomally degraded allowing hypertrophic growth to proceed.
Next, the inventors examined the effect of transduced proteins on cardiac hypertrophy in p27^−/− mice. Elimination of p27 gene function in these animals completely abrogated the ability of kd.CK2-alpha-prime to block cardiac hypertrophy (FIG. 6A-D). In contrast, hypertrophic responses to Ang II were abolished by p27deltaPi injections. Thus, reconstitution of p27 protein abundance in the myocardium of p27^−/− mice was accompanied by inhibition of Ang II action. Moreover, the inventors observed a marked increase in the number of TUNEL-positive cardiomyocyte nuclei in Ang II-infused p27^−/− mice (FIG. 6E,F) as compared to the WT controls. […] This was in direct contrast to the effect seen by ectopic kd.CK2-alpha-prime consistent with the inventors' previous work showing that CK2 is cardioprotective^73,74.
as §1

[2] = Ang infusion 1.4 μg/kg per minute 14 days, TAT.protein 10 mg/kg i.p. once daily
[3] = saline infusion, TAT.protein 10 mg/kg i.p. once daily 14 days
[4] = saline infusion, TAT.protein 10 mg/kg i.p. once daily 14 days, 8-weeks of age

Row | Molecule | FS (WT mice; [2]) | LVEDD (WT mice; [2]) | LVEF (WT mice; [2]) | LVESD (WT mice; [2]) | PWD (WT mice; [2]) | LVEDD (WT mice; [3]) | LVEF (WT mice; [3]) | LVESD (WT mice; [3]) | PWD (WT mice; [3]) | FS (WT mice; [4]) | other results
1 | B1 | 55 ± 3.9* % | 4.6 ± 0.1* mm | 82 ± 2.8* % | 2.4 ± 0.1* mm | 1.3 ± 0.1* mm | 4.5 ± 0.2^# mm | 83 ± 3.1^# % | 2.4 ± 0.2^# mm | 1.3 ± 0.2^# mm | 52 ± 2.0^# % | S83/T187 phosphorylation of p27 in cardiomyocytes [1]: rescued the detrimental impact of siCK2-alpha-prime on p27 phosphorylation; cardiac hypertrophy in the absence of Ang II (WT mice; WT mice, saline, TAT.protein 10 mg/kg i.p. once daily): did induce cardiac hypertrophy
2 | B2 | 54 ± 3.2% | 4.5 ± 0.2 mm | 81 ± 3.5% | 2.3 ± 0.1 mm | 1.2 ± 0.2 mm | 3.6 ± 0.2 mm | 69 ± 2.1% | 1.4 ± 0.1 mm | 0.7 ± 0.1 mm | 41 ± 1.8% | cardiac hypertrophy to Ang II (heart/body weight ratio, myocyte area, ANF/BNP mRNA) (WT mice; Ang II-treated WT mice, TAT.proteins 10 mg/kg i.p. once daily 14 days): No anti-hypertrophic effect; FS (p27 KO mice; [2]): 56 ± 3.9%; LVEDD (p27 KO mice; [2]): 4.6 ± 0.2 mm; LVEF (p27 KO mice; [2]): 82 ± 3.8%; LVESD (p27 KO mice; [2]): 2.3 ± 0.2 mm; PWD (p27 KO mice; [2]): 1.1 ± 0.1 mm; FS (p27 KO mice; [3]): 42 ± 2.4%; LVEDD (p27 KO mice; [3]): 3.7 ± 0.2 mm; LVEF (p27 KO mice; [3]): 73 ± 2.6%; LVESD (p27 KO mice; [3]): 1.3 ± 0.1 mm; PWD (p27 KO mice; [3]): 0.6 ± 0.2 mm
